Reference: US10618964B2, “Nanobody against IL-6R” (Ablynx N.V., dated 2020)

T1: native soluble IL-6R in human plasma (human), P08887
T1 chain: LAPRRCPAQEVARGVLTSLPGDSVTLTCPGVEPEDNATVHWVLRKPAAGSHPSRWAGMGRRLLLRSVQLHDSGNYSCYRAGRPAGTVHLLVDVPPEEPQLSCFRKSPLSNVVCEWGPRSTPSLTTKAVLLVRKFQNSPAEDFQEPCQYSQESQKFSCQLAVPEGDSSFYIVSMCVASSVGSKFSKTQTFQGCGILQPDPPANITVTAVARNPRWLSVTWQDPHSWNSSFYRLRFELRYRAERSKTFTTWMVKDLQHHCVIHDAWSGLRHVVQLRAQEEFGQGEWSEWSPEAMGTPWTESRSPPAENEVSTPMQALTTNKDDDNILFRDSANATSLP


Columns and labels:
[1] = target: T2, soluble IL-6R in cynomolgous plasma (cynomolgus monkey, UniProt A0A2K5WN54); experiment: ELISA 2, periplasmic extract; competitor IL-6; cyno plasma
[2] = target: T3, native soluble IL-6R in human plasma (human, UniProt P08887); experiment: ELISA 3, periplasmic extract; competitor BN-12; human plasma
[3] = target: human IL-6R on CHO-K1 cells (clone HuIL6R 4D6) (human, UniProt P08887); experiment: FMAT competition; competitor Reference IgG-A647; CHO cells with human IL-6R
Description: Eleven inhibitory Nanobodies were tested in competition with labelled Reference IgG for binding to CHO cells expressing hIL-6R or cynoIL-6R.

[4] = target: T3, native soluble IL-6R in human plasma; experiment: ELISA 1, periplasmic extract; competitor IL-6; human plasma
[5] = target: T3, native soluble IL-6R in human plasma; experiment: plasma potency ELISA, purified Nanobody; competitor IL-6; human plasma
Description: (§1) In this ELISA, plasma was used as a source of native soluble IL-6R. By this assay, we aimed to confirm the alphascreen results and to get a view on the cross-reactivity of the clones towards cynomolgous IL-6R. Human plasma (ELISA 1 and ELISA 3) or cynomolgous plasma (ELISA 2) were pre-incubated with a dilution of the periplasmic extract of the clones together with human IL-6 (50 ng/mL). Subsequently, plasma soluble IL-6R was captured on a B-N12 coated plate and bound IL-6 was detected using anti-IL-6 antibody BAF206 and streptavidin-HRP (ELISA 1 and ELISA 2). The ELISA signal dropped when the Nanobody clone could compete with IL-6 for binding to soluble IL-6R. ELISA 3 was a parallel ELISA in which the detection antibody was replaced by anti-IL-6R antibody BAF227 to exclude false positive competitors, which actually compete with B-N12 (e.g. family 2). Depicted in Table C-5 is the ratio of the OD450 value of the test sample versus the blank OD450 (mock sample). Clones were ordered based on ELISA 1 data.
(§2) A potency ELISA was done with the purified Nanobodies as described in Example 9. Here, different dilutions of each purified Nanobody were incubated with human (ELISA1) and cynomolgous plasma (ELISA2). IC50 values are depicted in Table C-9.

[6] = target: T2, soluble IL-6R in cynomolgous plasma; experiment: plasma potency ELISA, purified Nanobody; competitor IL-6; cyno plasma
Description: as §1, §2

IL-6R on TF-1 cells = IL-6R on TF-1 cells (Homo sapiens (Human), UniProt P08887); experiment: cell-based or functional assay
[7] = target: cyno IL-6R on CHO-K1 cells (clone CyIL6R 405) (cynomolgus monkey; human-rhesus); experiment: FMAT competition; competitor Reference IgG-A647; CHO cells with cyno IL-6R
[8] = target: T1, native soluble IL-6R in human plasma …; experiment: ELISA 1, periplasmic extract; competitor IL-6; human plasma; conditions: remark: other sources report otherwise
[9] = target: T1, native soluble IL-6R in human plasma …; experiment: ELISA 3, periplasmic extract; competitor BN-12; human plasma; conditions: remark: other sources report otherwise

OD450 ratio sample/blank [1]	OD450 ratio sample/blank [2]	IC50 [3]	OD450 ratio sample/blank [4]	IC50 [5]	IC50 [6]	IC50, IL-6-dependent proliferation of TF-1 cells (3H-thymidine) (IL-6R on TF-1 cells)	IC50 [7]	OD450 ratio sample/blank [8]	OD450 ratio sample/blank [9]	Binder
0.263	0.99	> 50 nM	1.59	37.9 nM	14.8 nM	1470 nM				IL6RPMP103H9 (VHH) VHH: EVQLVESGGGLVQPGGSLRLSCAASKSIFDINAMYWHRQAPGKQRESVASITSGGMRNYADSVKDRFTISKDNAKNTVYLQMNGLKPDDTAVYYCGLGRYEGGVWRDYWGQGTQVTVSS
0.031	0.988	63 nM	0.138	0.47 nM	0.55 nM	5.59 nM	27 nM			IL6RPMP120A5 (VHH) VHH: EVQLVESGGGLVQAGGSLSLSCATSGRTISDDTMAWFRQAPGKEREFVAIITFNGARTHYSDSVRDRFTISRDNAKNTVYLQMNSLKSEDTAVYYCAASTKYYSSTYNYIHPAFYDIWGQGTQVTVSS
0.175	0.948	> 100 nM	0.413	6.9 nM	13.7 nM	61.3 nM	75 nM			IL6RPMP103C7 (VHH) VHH: EVQLVESGGGLVQAGGSLSLSCATSGRTISDDTMAWFRQAPGKEREFVATITFSGARTHYSDSVRDRFTISRDNAKNTVYLQMDSLKSEDTAVYYCAASTKYYSSTYNYIHPAFYDIWGQGTQVTVSS
0.735	1.05		1.46	7.8 nM	252 nM	245 nM				IL6RPMP104B8 (VHH) VHH: EVQLVESGGGLVQAGGSLRLSCAASGFAFDDYAIGWFRQAPGKEREGVSSISSSNGNTYYADSVRGRFTISSDNAKNTVYLQMNSLKPEDTGVYYCAAIWGIFFNEKMPVGAYDYWGQGTQVTVSS
0.0402	0.995	> 100 nM	0.21	0.58 nM	0.62 nM	6.2 nM	13 nM			IL6RPMP105E1 (VHH) VHH: EVQLVESGGGLVQAGGSLRLSCAASGSIFSIKAMGWYRQAPGKQRELVARITSGGSTYYADSVKGRFTISRDNAKNTVYLQMNSLKPEDTAVFYCNAIVTDSDYDLGNDYWGQGTQVTVSS
0.359	0.954		0.0894	0.15 nM	29.1 nM	0.149 nM				IL6RPMP108E1 (VHH) VHH: EVQLVESGGGLVQAGGSLRLSCAASGFTFDDYDIGWFRQAPGKEREGVSGISSSDGNTYYADSVKGRFTISSDNAKNTVYLQMNSLKPEDTAVYYCAAEPPDSSWYLDGSPEFFKYWGQGTQVTVSS
0.907								0.911	1.01	IL6RPMP108C9 (VHH) VHH: EVQLVESGGGLVQAGGSLRLSCAASGRTYAMAWFRQAPGKEREFVAAISIVTDYADSVKGRFNISRDNRENTVYLQMNSLKPEDTAVYYCAANTYYSGAYFPRGHEWYEYWGQGTQVTVSS
0.292	0.967		0.215	0.38 nM	47.8 nM	4.05 nM				IL6RPMP107A1 (VHH) VHH: EVQLVESGGGLVQAGGSLNLSCNASGDIGSINAMGWYRQAPGQQREWVAVITDTDSTIYPDSVKGRFAISRDGAKNTVHLRMSSLKPEDTAVYYCNAYQAGWGDYWGQGTQVTVSS
1.1								2.02	1.01	IL6RPMP103C3 (VHH) VHH: EVQLVESGGGLVQPGGSMRLSCAATGAIFSISTMGWYRQAPGAQREFVAGVGLDGTPNYADSVKGRFTISRDNTKNTVSLQMENLKPEDTGVYYCNIDEGMDYDGNFYDRWGQGTQVTVSS
		3.4 nM								Reference Fab (Fab, V domains shown) VH: QVQLQESGPGLVRPSQTLSLTCTVSGYSITSDHAWSWVRQPPGRGLEWIGYISYSGITTYNPSLKSRVTMLRDTSKNQFSLRLSSVTAADTAVYYCARSLARTTAMDYWGQGSLVTVSS VL: DIQMTQSPSSLSASVGDRVTITCRASQDISSYLNWYQQKPGKAPKLLIYYTSRLHSGVPSRFSGSGSGTDFTFTISSLQPEDIATYYCQQGNTLPYTFGQGTKVEIKR
0.961								0.731	0.989	IL6RPMP108E9 (VHH) VHH: EVQLVESGGGLVQAGGSLRLSCAFSRRSFGNFPMGWFRQRPGEEREYVAVISWNNNYIHYRDSVKGRFTASRDTSENRMYLQMNGLKPEDTAVYYCAARTKDNTLFTPAEEYDYWGQGTQVTVSS
1.09								1.95	0.993	IL6RPMP103F2 (VHH) VHH: EVQLVESGGGLVQAGGSLRLSCVASGHTSDTYIMAWFRQAPGKEREFVASILWDGSITYYADSVKDRFTISRDISRKTLYLQMNSLRPEDTATYTCARGIYFSRRYVDPGIYGTWGQGTQVTVSS
0.0867	0.992		1.08	3.5 nM	4.7 nM	349 nM				IL6RPMP107A9 (VHH) VHH: EVQLVESGGGLVQAGGSLRLSCAASGGIFSDMFMGWFRQAPGKSRESVARISPSGNTFYQDSVRGRFTISTDNAKNTVYLQMNNLKPEDTAVYYCAANVGVTGSYEYWGQGTQVTVSS
0.0819	1	37 nM	0.959	1.73 nM	2.7 nM	15.6 nM	30 nM			IL6RPMP103C4 (VHH) VHH: EVQLVESGGGLVEAGGSLRLSCAAAGRTLSSYSMAWFRQAPGKEREFVAIIRGNPSRTYHSDSVKGRFTASRDNAKNTVYLQMNRLEPEDTAVYYCAADPPPFASDYSAPQSYDYWGQGTQVTVSS
0.0289	0.993		0.236	1.12 nM	0.66 nM	10.2 nM				IL6RPMP120G6 (VHH) VHH: EVQLVESGGDLVQTGGSLRLSCAASGITVSDRAMGWYRQAPGKQREMVAGVSRGGMTSYADSVKGRLTISRDNAKNSVYLQMNSLNPEDTAVYYCSAYYRYGSSVPQYWGQGTQVTVSS
